Reference: patent US20070004909A1 (MacroGenics, published 2007)

Columns and labels:
[1] = biological target: T1, soluble CD16A (sCD16A) (UniProt P08637 17-208, limits assumed); assay: SPR (BIAcore), sCD16 immobilised, diabody injected for 60 s
T1 construct: extracellular domain; Amine-coupled to the chip in SPR; biotin- or HRP-conjugated as the probe in the sandwich ELISAs; also called FcγRIIIA; sCD16A-Biotin
Method: (§1) The binding of h2B6-h3G8 CBD, h2B6 CMD and h3G8 CMD to sCD16A, sCD32B, and sCD32A (negative control) was assayed by SPR analysis. h3G8 scFv was also tested as a control. (A) Binding to sCD16; (B) Binding to sCD32B and (C) Binding to sCD32A. Diabodies were injected at a concentration of 100 NM, and scFv at a concentration of 200 nM, over receptor surfaces at a flow rate of […] for 60 sec.

[2] = biological target: T2, soluble CD32A (sCD32A) (UniProt P12318 34-217, limits assumed); assay: SPR (BIAcore), sCD32A (negative control receptor) immobilised, diabody injected for 60 s
T2 construct: extracellular domain; Negative control surface in SPR; also called control receptor
T2 sequence (looked up): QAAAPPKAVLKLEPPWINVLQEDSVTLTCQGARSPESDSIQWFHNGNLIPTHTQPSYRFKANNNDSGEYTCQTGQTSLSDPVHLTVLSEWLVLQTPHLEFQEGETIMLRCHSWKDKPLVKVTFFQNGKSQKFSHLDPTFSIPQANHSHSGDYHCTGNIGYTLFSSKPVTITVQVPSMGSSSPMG
Method: as §1

[3] = biological target: T3, soluble CD32B (sCD32B) (UniProt P31994 43-217, limits assumed); assay: SPR (BIAcore 1000); receptor amine-coupled (~1000 RU), analyte 6.25-200 nM; units not printed (koff/kon implies nM)
T3 construct: extracellular domain; As immobilised on the BIAcore chip; also called FcγRIIB
T3 sequence (looked up): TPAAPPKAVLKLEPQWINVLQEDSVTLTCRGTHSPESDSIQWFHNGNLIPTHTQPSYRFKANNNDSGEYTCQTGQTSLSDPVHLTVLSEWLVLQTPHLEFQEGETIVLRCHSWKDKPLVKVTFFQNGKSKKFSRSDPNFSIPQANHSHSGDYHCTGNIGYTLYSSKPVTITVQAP
Method: (§2) The binding of h2B6-h3G8 CBD, h2B6 CMD and h3G8 CMD to sCD16A, and sCD32B was assayed by SPR analysis. h3G8 scFv was also tested as a control. (A) Binding of to h3G8 CMD sCD16A; (B) Binding of h2B6-h3G8 CBD to sCD16A; (C) Binding of h3G8 scFv to sCD16A; (D) Binding of h2B6 CMD to sCD32B; and (E) Binding of h2B6-h3G8 CBD to sCD32B. Diabodies were injected at concentrations of 6.25-200 nM over receptor surfaces at a flow rate of […] for 180 sec.
(§3) SPR analysis was also used to estimate the kinetic and equilibrium constants of the CMDs and h2B6-h3G8 CBD to sCD16 and/or sCD32B. Results were compared to the same constants calculated for an h3G8 scFV. FIGS. 7A-E show the graphical results of the SPR analysis. The kinetic on and off rates, as well as the equilibrium constant, calculated from the results depicted in FIG. 7 are provided in Table 13.

[4] = biological target: T1, soluble CD16A (sCD16A); assay: sandwich ELISA: sCD32B coated on the plate (figure legend), purified diabody diluted 1:25 to 1:100, HRP-conjugated sCD16A as the probe; OD450
[5] = biological target: T1, soluble CD16A (sCD16A); assay: sandwich ELISA: mCD32B coated on the plate, diabody preparation diluted 1:25 and 1:50, biotin-conjugated sCD16A as the probe; OD450
Method: (§4) The binding of diabody molecules derived from the polyprotein precursor molecule construct 13 (SEQ ID NO:97) to murine CD32B (mCD32B) and soluble CD16A (sCD16A) was assayed in a sandwich ELISA. mCD32B was used as the target protein. The secondary probe was biotin conjugated sCD16A.
(§5) ELISA: The binding of diabody molecules secreted into the medium was assayed by sandwich ELISA as described, supra. Murine CD32B was used to coat the plate, i.e., as the target protein, and HRP-conjugated CD16A was used as the probe for the product of the co-transfection of constructs 15 and 16. mCD32B was used as the target protein and biotin-conjugated CD16A was used as the probe for the recombinant system comprising construct 13.
(§6) Conditioned media from the recombinant expression systems comprising constructs 13 was analysed by sandwich ELISA. The ELISA assay tested the binding of the CBD for specificity to either or both of mCD32B and/or CD16 (FIG. 18). CD32B served as the target antigen and CD16A was used as the secondary probe.

[6] = biological target: T4, murine CD32B (mCD32B) (murine, UniProt P08101 30-210, limits assumed); assay: as above
T4 construct: Coating protein of the sandwich ELISA for the construct 13 product
T4 sequence (looked up): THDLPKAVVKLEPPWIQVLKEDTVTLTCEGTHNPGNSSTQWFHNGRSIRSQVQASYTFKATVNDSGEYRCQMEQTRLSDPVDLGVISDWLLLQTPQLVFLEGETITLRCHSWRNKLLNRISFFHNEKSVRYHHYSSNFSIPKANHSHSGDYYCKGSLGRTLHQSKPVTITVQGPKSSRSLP
Method: as §4, §5, §6

[7] = biological target: T3, soluble CD32B (sCD32B); assay: SPR (BIAcore), sCD32B immobilised, diabody injected for 60 s
Method: as §1

[8] = biological target: T5, sCD32B-Ig (UniProt P31994 43-217); assay: sandwich ELISA: sCD32B-Ig coated on the plate, diabody titrated, detected with labelled sCD16A; OD450
T5 construct: extracellular domain; also called CD32B (ELISA coat); sCD32B (target protein of the sandwich ELISAs); not shown: Ig part of sCD32B-Ig is not described
T5 sequence (looked up): T3 sequence (looked up)
Method: The binding of h2B6-h3G8 CBD to sCD32B and sCD16A was assayed in a sandwich ELISA. sCD32B was used as the target protein. The secondary probe was HRP conjugated sCD16A. h3G8 CMD, which binds CD16A, was used as control.
ELISA: The binding of eluted and purified diabodies was characterized by ELISA assay, as described in 5.4.2. 50 ul/well of a 2 ug/ml solution of sCD32B-Ig was coated on 96-well Maxisorp plate in Carbonate buffer at 4° C. over night. The plate was washed three times with PBS-T (PBS, 0.1% Tween 20) and blocked by 0.5% BSA in PBS-T for 30 minutes at room temperature. Subsequently, h2B6-h3G8 CBD, h2B6 CMD, or h3G8 CMD were diluted into the blocking buffer in a serial of two-fold dilutions to generate a range of diabody concentrations, from 0.5 μg/ml to 0.001 μg/ml. The plate was then incubated at room temperature for 1 hour. After washing with PBS-T three times, 50 ul/well of 0.2 ug/ml sCD16A-Biotin was added to each well. The plate was again incubated at room temperature for 1 hour. After washing with PBS-T three times, 50 ul/well of a 1:5000 dilution of HRP conjugated streptavidin (Amersham Pharmacia Biotech) was used for detection. The HRP-streptavidin was allowed to incubate for 45 minutes at room temperature. […] The OD450 nm was read by using a 96-well plate reader and SOFTmax software, and results plotted using GraphPadPrism 3.03 software. […]

[9] = biological target: T1, soluble CD16A (sCD16A); assay: SPR (BIAcore 1000); receptor amine-coupled (~1000 RU), analyte 6.25-200 nM; units not printed (koff/kon implies nM)
Method: as §2, §3

T1 sequence (P08637 17-208 limits assumed): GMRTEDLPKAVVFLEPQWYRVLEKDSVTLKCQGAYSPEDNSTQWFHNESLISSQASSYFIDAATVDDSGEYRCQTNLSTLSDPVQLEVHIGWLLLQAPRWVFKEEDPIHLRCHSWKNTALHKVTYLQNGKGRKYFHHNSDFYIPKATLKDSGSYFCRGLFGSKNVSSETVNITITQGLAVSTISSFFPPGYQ

B1: h2B6 covalent monospecific diabody (CMD) (other)
chain 1: EIVLTQSPDFQSVTPKEKVTFTCRTSQSIGTNIHWYQQKPDQSPKLLIKEVSESISGVPSRFSGSGSGTDFTLTINSLEAEDAATYYCQQSNTWPFTFGGGTKVEIKGGGSGGGGQVQLVQSGAEVKKPGASVKVSCKASGYTFTNYWIHWVRQAPGQGLEWIGVIDPSDTYPNYNKKFKGRVTMTVVVSTSTAYMELRSLRSDDTAVYYCARNGDSDYYSGMDYWGQGTTVTVSSLGGC
chain 2: B1 chain 1
modifications: Covalent homodimer: disulfide between the C-terminal LGGC cysteines of the two identical chains.
notes: also called h2B6 CMD; h2B6 diabody
[1]
  binding result: no binding (tested: 100 nM)
[2]
  binding result: no binding (tested: 100 nM)
[3]
  Kd: 21 nM

B2: covalent bispecific diabody of constructs 15 and 16 (pMGX0752+pMGX0753) (bispecific antibody)
chain 1: EIVLTQSPDFQSVTPKEKVTFTCRTSQSIGTNIHWYQQKPDQSPKLLIKEVSESISGVPSRFSGSGSGTDFTLTINSLEAEDAATYYCQQSNTWPFTFGGGTKVEIKGGGSGGGGQVTLRESGPALVKPTQTLTLTCTFSGFSLSTSGMGVGWIRQPPGKALEWLAHIWWDDDKRYNPALKSRLTISKDTSKNQVVLTMTNMDPVDTATYYCAQINPAWFAYWGQGTLVTVSSFNRGEC
chain 2: DIVMTQSPDSLAVSLGERATINCKASQSVDFDGDSFMNWYQQKPGQPPKLLIYTTSNLESGVPDRFSGSGSGTDFTLTISSLQAEDVAVYYCQQSNEDPYTFGQGTKLEIKGGGSGGGGQVQLVQSGAEVKKPGASVKVSCKASGYTFTNYWIHWVRQAPGQGLEWIGVIDPSDTYPNYNKKFKGRVTMTVVVSTSTAYMELRSLRSDDTAVYYCARNGDSDYYSGMDYWGQGTTVTVSSVEPKSC
notes: Construct 15 = Hu2B6VL-Hu3G8VH-FNRGEC; construct 16 = Hu3G8VL-Hu2B6VH-VEPKSC; also called construct 15/16 combination
[4]
  binding result: binds

B3: h2.4G2-h3G8 CBD produced from the polyprotein precursor construct 13 (bispecific antibody)
chain 1: DTVLTQSPASLAVSLGQRATISCKASQSVDFDGDSFMNWYQQKPGQPPKLLIYTTSNLESGIPARFSASGSGTDFTLNIHPVEEEDTATYYCQQSNEDPYTFGGGTKLEIKGGGSGGGGEVELVESGGGLVQPGRSLKLSCAASGFTFSDYYMAWVRQAPTTGLEWVASISYDGGDTHYRDSVKGRFTISRDNAKSSLYLQMDSLRSEDTATYYCATETTGIPTGVMDAWGQGVSVTVSSLGGCGGRAKR
chain 2: DVQMTQSPSNLAASPGESVSINCKASESISKYLAWYLQKPGKANKLLMYDGSTLQSGIPSRFSGSGSGTDFTLTIRSLEPEDFGLYYCQQHYEYPATFGSGTKLEIKGGGSGGGGQVTLKESGPGILQPSQTLSLTCSFSGFSLRTSGMGVGWIRQPSGKGLEWLAHIWWDDDKRYNPALKSRLTISKDTSSNQVFLKIASVDTADTATYYCAQINPAWFAYWGQGTLVTVSSLGGC
modifications: Interchain disulfide between the cysteines of the two LGGC sequences.
notes: In the assay it is the heterodimer of the two chains made by furin cleavage; also called pMGX0750 product; diabody molecules derived from the polyprotein precursor; copies: 1 + 1
[5]
  binding result: binds
[6]
  binding result: binds

B4: h3G8 covalent monospecific diabody (CMD) (other)
chain 1: DIVMTQSPDSLAVSLGERATINCKASQSVDFDGDSFMNWYQQKPGQPPKLLIYTTSNLESGVPDRFSGSGSGTDFTLTISSLQAEDVAVYYCQQSNEDPYTFGQGTKLEIKGGGSGGGGQVTLRESGPALVKPTQTLTLTCTFSGFSLSTSGMGVGWIRQPPGKALEWLAHIWWDDDKRYNPALKSRLTISKDTSKNQVVLTMTNMDPVDTATYYCAQINPAWFAYWGQGTLVTVSSLGGC
chain 2: B4 chain 1
modifications: Covalent homodimer: disulfide between the C-terminal LGGC cysteines of the two identical chains.
notes: also called h3G8 CMD; h3G8 diabody
[7]
  binding result: no binding (tested: 100 nM)
[2]
  binding result: no binding (tested: 100 nM)
[8]
  binding result: no binding (tested: 0.5 ug/ml)
[9]
  Kd: 18 nM
